Substitutions are numbered along the chain they refer to.
T1: soluble cynomolgus TNFR2 (cynomolgus, UniProt A0A2K5VET2 132-366)
T1 sequence: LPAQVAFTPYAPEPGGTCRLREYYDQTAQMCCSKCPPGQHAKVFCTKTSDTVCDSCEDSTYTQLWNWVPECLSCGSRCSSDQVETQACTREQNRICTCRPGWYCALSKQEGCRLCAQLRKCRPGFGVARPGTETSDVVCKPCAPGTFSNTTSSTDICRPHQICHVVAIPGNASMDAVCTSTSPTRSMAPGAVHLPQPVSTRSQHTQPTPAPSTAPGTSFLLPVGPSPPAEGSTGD

T2: human TNFR2 on cells (human, UniProt P20333 23-461)
T2 construct: whole, on cells; also called TNFR2 on Jurkat clone H6; human TNFR2 on CD4+ and CD8+ T cells
T2 sequence (looked up): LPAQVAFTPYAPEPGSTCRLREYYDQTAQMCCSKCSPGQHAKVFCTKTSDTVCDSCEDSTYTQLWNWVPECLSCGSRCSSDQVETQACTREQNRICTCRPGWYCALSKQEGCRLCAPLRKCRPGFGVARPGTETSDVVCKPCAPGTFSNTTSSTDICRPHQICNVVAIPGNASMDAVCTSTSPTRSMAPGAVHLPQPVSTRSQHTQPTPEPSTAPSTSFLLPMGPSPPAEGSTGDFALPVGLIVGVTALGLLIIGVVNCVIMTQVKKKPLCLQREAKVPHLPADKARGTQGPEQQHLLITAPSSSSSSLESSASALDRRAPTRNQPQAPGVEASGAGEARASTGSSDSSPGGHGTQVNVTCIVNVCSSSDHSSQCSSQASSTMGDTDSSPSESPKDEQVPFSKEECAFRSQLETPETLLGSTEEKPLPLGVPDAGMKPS

T3: soluble human TNFR2 (human, UniProt P20333 23-257)
T3 construct: also called soluble TNFR2
T3 sequence (looked up): T1 sequence with G16S, P36S, Q117P, H164N, A210E, G216S, V223M

B1: chimeric SBT-004 (antibody, V domains shown)
VH: EVQLQQSGPEVGRPGSSVKISCKASGYTFTDYIMHWVKQSPGQGLEWIGWVDPEYGSTDYAEKFKKKATLTADTSSNTAYIQLSSLTSEDTATYFCARDDGSYSPFDYWGQGVMVTVSS
VL: DIQMTQSPPSLSASLGDKVTITCQASQNINKYIAWYQQKPGKAPRLLIRYTSTLESGTPSRFSGSGSGRDYSFSISNVESEDIASYYCLQYVNLLTFGAGTKLEIK
notes: VH fused to a human IgG1 Fc domain; also called chSBT-004
B2: chimeric SBT-002 (antibody, V domains shown)
VH: QVTLKESGPGILQPSQTLSLTCSFSGFSLSTSGMGVGWIRQPSGKGLEWLAHIWWDDDKFYNPSLKSQLTISKDTSRNQVFLKLTSVVTADTATYYCARLTGTRYFDYWGQGTTLTVSS
VL: DVQMTQSPSSLSASLGGKVTITCKASQDINKFIAWYQHKPGKGPRLLIHYTSTLQPGIPSKFSGSGSGRDYSFSISNLEPEDIATYYCLQYGNLWTFGGGTKLEIT
notes: also called chSBT-002

Assays:
soluble cynomolgus TNFR2 = target: T1, soluble cynomolgus TNFR2; experiment: competition ELISA: plate-bound soluble cynomolgus TNFR2, competitor biotinylated TNFα, streptavidin-HRP, A450
Protocol: (§1) Soluble human TNFR2 (Sino Biological, 10417-H08H) or cynomolgus TNFR2 (Sino Biological, 90102-C08H) was coated on Nunc-Immuno™ plates at 0.1 μg/ml, 0.5 ug/ml, 1 μg/ml, and 5 μg/ml. […] Plates were developed using TMB and stopped with 3 M HCl.

human TNFR2 on cells = target: T2, human TNFR2 on cells; experiment: flow cytometry on human PBMC, antibody at 10 ug/mL, anti-human Fc-PE secondary
Protocol: The following day 0.3×10⁶ PBMC were counted and washed with PBS (Lonza). PBMCs were resuspended in Fixable Viability Stain 575V (BD) diluted 1:1,000 in PBS and incubated for 10 minutes. PBMCs were then washed twice in PBS to remove residual viability stain. PBMCs were then resuspended in Horizon Brilliant Stain Buffer (BD) with 10 uL per test of human Fc receptor binding inhibitor (eBioscience) and incubated on ice for 20 minutes to block Fc receptors. […] PBMCs were incubated 20 minutes on ice and then washed three times with 2% FBS PBS. To visualize TNFR chimeric antibody binding, PBMCs were resuspended in goat anti-human Fc-PE F(ab′)₂ secondary reagent (Jackson ImmunoResearch) diluted 1:200 in 2% FBS PBS and incubated on ice for 20 minutes. Cells were then washed three times in 2% FBS PBS and resuspended in 200 uL 2% FBS PBS for flow cytometry analysis using a BD FACS Celesta instrument and FACS Diva software. T cells were analyzed for chimeric TNFR2 binding by gating on viable cells defined as lymphocytes using forward and side scatter and as T cells by anti-CD3 staining. CD4⁺ and CD8⁺ subsets were identified by commercially available specific antibody conjugates.

soluble human TNFR2 = target: T3, soluble human TNFR2; experiment: competition ELISA: plate-bound soluble human TNFR2, competitor biotinylated TNFα, streptavidin-HRP, A450
Protocol: as §1

| Binder | IC50 (soluble cynomolgus TNFR2) [nM] | % CD4^+ ab^+ Donor 1 (human TNFR2 on cells) [%] | % CD4^+ ab^+ Donor 2 (human TNFR2 on cells) [%] | % CD8^+ ab^+ Donor 1 (human TNFR2 on cells) [%] | % CD8^+ ab^+ Donor 2 (human TNFR2 on cells) [%] | IC50 (soluble human TNFR2) [nM] |
| --- | --- | --- | --- | --- | --- | --- |
| B1 | 31 | 38.4 | 26.4 | 18.8 | 16.1 | 19.6 |
| B2 | 27.6 | 47.6 | 38.3 | 24.3 | 18.9 | 16.5 |
